Results from patent US20260265368A1 (CARSGEN LIFE SCIENCES, published 2026).

How the values were obtained:
[1] = biological target: T1, Human CLDN6 (on 293T-CLDN6 cells) (human, UniProt P56747 1-220); experiment: flow cytometry on 293T-CLDN6 cells
T1 construct: In the killing assay it was also endogenous on OVCAR3 and OV90 cells; also called Claudin 6
T1 sequence: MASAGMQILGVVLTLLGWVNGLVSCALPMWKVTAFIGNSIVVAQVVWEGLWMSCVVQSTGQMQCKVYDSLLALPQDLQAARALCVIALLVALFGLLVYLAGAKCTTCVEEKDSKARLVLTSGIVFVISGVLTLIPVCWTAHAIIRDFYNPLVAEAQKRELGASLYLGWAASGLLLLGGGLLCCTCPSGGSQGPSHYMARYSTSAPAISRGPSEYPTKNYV

[2] = biological target: T2, Human CLDN4 (on 293T-CLDN4 cells) (human, UniProt O14493 1-209); experiment: flow cytometry on 293T-CLDN4 cells
T2 construct: also called Claudin 4
T2 sequence: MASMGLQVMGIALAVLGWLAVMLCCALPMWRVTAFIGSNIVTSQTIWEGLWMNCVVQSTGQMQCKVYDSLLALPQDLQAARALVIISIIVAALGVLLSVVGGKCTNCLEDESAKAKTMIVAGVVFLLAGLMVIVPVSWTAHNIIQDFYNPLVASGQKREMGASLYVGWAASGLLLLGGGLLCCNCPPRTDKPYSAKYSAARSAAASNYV
Procedure: (§1) After centrifugation, the supernatant was discarded, and the cells were washed with PBS and incubated with Goat-anti-Mouse FITC at 4° C. After centrifugation, the supernatant was discarded, and the cells were washed and detected by flow cytometry. FlowJo v.X.0.7 was used for statistics and GraphPad Prism 8.0 was used for plotting.

[3] = biological target: T3, Human CLDN9 (on 293T-CLDN9 cells) (human, UniProt O95484 1-217); experiment: flow cytometry on 293T-CLDN9 cells
T3 construct: also called Claudin 9
T3 sequence: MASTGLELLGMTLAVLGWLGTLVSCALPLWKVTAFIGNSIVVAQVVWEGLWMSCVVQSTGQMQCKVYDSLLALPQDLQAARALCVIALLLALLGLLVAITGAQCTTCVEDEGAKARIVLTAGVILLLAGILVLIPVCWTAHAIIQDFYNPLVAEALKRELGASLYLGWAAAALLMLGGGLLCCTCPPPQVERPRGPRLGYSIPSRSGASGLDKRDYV
Procedure: as §1

[4] = biological target: T3, Human CLDN9 (on 293T-CLDN9 cells); experiment: flow cytometry (MFI) on 293T-CLDN9 cells
Procedure: (§2) The heavy chain variable region of antibody P1 from Example 3 was combined with the light chain variable regions of antibodies P2 and P3 by using molecular cloning, respectively, so as to obtain antibodies M1 and M2. After being prokaryotically expressed and puried, purified single chain antibodies (scFv) were obtained. […] Data were analyzed using FlowJo to calculate mean fluorescence intensity (MFI).

[5] = biological target: T1, Human CLDN6 (on 293T-CLDN6 cells); experiment: flow cytometry EC50 on 293T-CLDN6 cells, against antibody H1
Procedure: as §2

[6] = biological target: T2, Human CLDN4 (on 293T-CLDN4 cells); experiment: flow cytometry (MFI) on 293T-CLDN4 cells
Procedure: as §2

Binder	EC50 [1]	binding result [2]	binding result [3]	binding result [4]	fold improvement in affinity compared with antibody H1 [5]	binding result [6]
Antibody P2 (scFv) (scFv, Prokaryotically expressed single chain antibody) scFv: EVQLVQSGAEVKKPGASVKVSCKASGYTFTGYYMNWVRQAPGQGLEWMGEINPATGSTTYNQKFKARVTITRDTSTSTAYMELSSLRSEDTAVYYCARRDYYYGSGFYAMDYWGQGTLVTVSSGGGGSGGGGSGGGGSDIQMTQSPSSLSASVGDRVTITCQASQSVSNNLNWYQQKPGKAPKLLIYGASKLEDGVPSRFSGSGSGTDFTFTISSLQPEDFATYYCLQHRYMWTFGQGTKVEIK	144 nM	–	–	–	–	–
humanized antibody H1 (scFv-huFc) (Fc fusion, Tested as scFv-huFc; not shown: human Fc (huFc)) scFv: EVQLVQSGAEVKKPGASVKVSCKASGYTFTGYYMNWVRQAPGQGLEWMGEINPATGSTTYNQKFKARVTITRDTSTSTAYMELSSLRSEDTAVYYCARRDYYYGSGFYAMDYWGQGTLVTVSSGGGGSGGGGSGGGGSDIQMTQSPSSLSASVGDRVTITCQASQSVSNNLNWYQQKPGKAPKLLIYGASKLEDGVPSRFSGSGSGTDFTFTISSLQPEDFATYYCLQHRYLWTFGQGTKVEIK	475 nM	no binding (tested: 10 µg/mL)	no binding (tested: 10 µg/mL)	–	–	–
Antibody P4 (scFv) (scFv, Prokaryotically expressed single chain antibody) scFv: EVQLVQSGAEVKKPGASVKVSCKASGYTFTGYYMNWVRQAPGQGLEWMGEINPATGSTTYNQKFKARVTITRDTSTSTAYMELSSLRSEDTAVYYCARRDYYYGSGFYAMDYWGQGTLVTVSSGGGGSGGGGSGGGGSDIQMTQSPSSLSASVGDRVTITCQASQSVSNNLNWYQQKPGKAPKLLIYGASKLEDGVPSRFSGSGSGTDFTFTISSLQPEDFATYYCQQHRYMWTFGQGTKVEIK	183 nM	–	–	–	–	–
Antibody P3 (scFv) (scFv, Prokaryotically expressed single chain antibody) scFv: EVQLVQSGAEVKKPGASVKVSCKASGYTFTGYYMNWVRQAPGQGLEWMGEINPATGSTTYNQKFKARVTITRDTSTSTAYMELSSLRSEDTAVYYCARRDYYYGSGFYAMDYWGQGTLVTVSSGGGGSGGGGSGGGGSDIQMTQSPSSLSASVGDRVTITCQASQSVSNNLNWYQQKPGKAPKLLIYGASKLEDGVPSRFSGSGSGTDFTFTISSLQPEDFATYYCQQHRFMWTFGQGTKVEIK	555 nM	–	–	–	–	–
Antibody P1 (scFv) (scFv, Prokaryotically expressed single chain antibody) scFv: EVQLVQSGAEVKKPGASVKVSCKASGYTFTGYYMNWVRQAPGQGLEWMGEINPATGSTTYNQKFKARVTITRDTSTSTAYMELSSLRSEDTAVYYCARRDYYLGSNSYALDYWGQGTLVTVSSGGGGSGGGGSGGGGSDIQMTQSPSSLSASVGDRVTITCQASQSVSNNLNWYQQKPGKAPKLLIYGASKLEDGVPSRFSGSGSGTDFTFTISSLQPEDFATYYCLQHRYLWTFGQGTKVEIK	62.7 nM	–	–	–	–	–
antibody M1 (scFv) (scFv, V domains shown, Tested as a prokaryotically expressed single chain antibody (scFv)) VH: EVQLVQSGAEVKKPGASVKVSCKASGYTFTGYYMNWVRQAPGQGLEWMGEINPATGSTTYNQKFKARVTITRDTSTSTAYMELSSLRSEDTAVYYCARRDYYLGSNSYALDYWGQGTLVTVSS VL: DIQMTQSPSSLSASVGDRVTITCQASQSVSNNLNWYQQKPGKAPKLLIYGASKLEDGVPSRFSGSGSGTDFTFTISSLQPEDFATYYCLQHRYMWTFGQGTKVEIK	23 nM	–	–	no binding (tested: 5 µg/mL)	~20 fold	no binding (tested: 5 µg/mL)
antibody M2 (scFv) (scFv, V domains shown, Tested as a prokaryotically expressed single chain antibody (scFv)) VH: EVQLVQSGAEVKKPGASVKVSCKASGYTFTGYYMNWVRQAPGQGLEWMGEINPATGSTTYNQKFKARVTITRDTSTSTAYMELSSLRSEDTAVYYCARRDYYLGSNSYALDYWGQGTLVTVSS VL: DIQMTQSPSSLSASVGDRVTITCQASQSVSNNLNWYQQKPGKAPKLLIYGASKLEDGVPSRFSGSGSGTDFTFTISSLQPEDFATYYCQQHRFMWTFGQGTKVEIK	24.7 nM	–	–	no binding (tested: 5 µg/mL)	~20 fold	no binding (tested: 5 µg/mL)
